Here are results for nine molecules from PMC11642874 (bioRxiv, 2024).

Data set [1] concerns the target T1, POLRMT-LSPDNA(−42to+9)-TFAM (P-D-T) complex (human, UniProt O00411 43-1230; Q00059 43-245). Description: fluorescence polarisation. (Fluorescence polarisation rises when a labelled molecule tumbles more slowly, as on binding a larger partner.)
Data set [2] has as its target POLRMT Δ42;TFAM Δ42;TFB2M Δ41, Alexa488 (human;human;human, UniProt O00411;Q00059;Q9H5Q4 43-1230;43-246;42-396, ||). As to the kind of experiment: fluorescence polarization.
Data set [3] addresses Human mitochondrial RNA polymerase (POLRMT) Δ42 (human, UniProt O00411 43-1230). As to the kind of experiment: cryo-EM structure.
Data set [4] concerns the target T1, POLRMT-LSPDNA(−42to+9)-TFAM (P-D-T) …. As to the kind of experiment: fluorescence polarisation. The source holds these as a separate data set.
Data set [5] deals with POLRMT Δ42;TFAM Δ42;TFB2M Δ59 (human;human;human, UniProt O00411;Q00059;Q9H5Q4 43-1230;43-246;60-396, ||). Description: SEC and DLS.
A further data set has as its target POLRMT Δ42;TFB2M Δ59 (human;human, UniProt O00411;Q9H5Q4 43-1230;60-396, |). Description: cryo-EM structure 3.15 A.

T1 sequence (O00411 43-1230, one chain of several): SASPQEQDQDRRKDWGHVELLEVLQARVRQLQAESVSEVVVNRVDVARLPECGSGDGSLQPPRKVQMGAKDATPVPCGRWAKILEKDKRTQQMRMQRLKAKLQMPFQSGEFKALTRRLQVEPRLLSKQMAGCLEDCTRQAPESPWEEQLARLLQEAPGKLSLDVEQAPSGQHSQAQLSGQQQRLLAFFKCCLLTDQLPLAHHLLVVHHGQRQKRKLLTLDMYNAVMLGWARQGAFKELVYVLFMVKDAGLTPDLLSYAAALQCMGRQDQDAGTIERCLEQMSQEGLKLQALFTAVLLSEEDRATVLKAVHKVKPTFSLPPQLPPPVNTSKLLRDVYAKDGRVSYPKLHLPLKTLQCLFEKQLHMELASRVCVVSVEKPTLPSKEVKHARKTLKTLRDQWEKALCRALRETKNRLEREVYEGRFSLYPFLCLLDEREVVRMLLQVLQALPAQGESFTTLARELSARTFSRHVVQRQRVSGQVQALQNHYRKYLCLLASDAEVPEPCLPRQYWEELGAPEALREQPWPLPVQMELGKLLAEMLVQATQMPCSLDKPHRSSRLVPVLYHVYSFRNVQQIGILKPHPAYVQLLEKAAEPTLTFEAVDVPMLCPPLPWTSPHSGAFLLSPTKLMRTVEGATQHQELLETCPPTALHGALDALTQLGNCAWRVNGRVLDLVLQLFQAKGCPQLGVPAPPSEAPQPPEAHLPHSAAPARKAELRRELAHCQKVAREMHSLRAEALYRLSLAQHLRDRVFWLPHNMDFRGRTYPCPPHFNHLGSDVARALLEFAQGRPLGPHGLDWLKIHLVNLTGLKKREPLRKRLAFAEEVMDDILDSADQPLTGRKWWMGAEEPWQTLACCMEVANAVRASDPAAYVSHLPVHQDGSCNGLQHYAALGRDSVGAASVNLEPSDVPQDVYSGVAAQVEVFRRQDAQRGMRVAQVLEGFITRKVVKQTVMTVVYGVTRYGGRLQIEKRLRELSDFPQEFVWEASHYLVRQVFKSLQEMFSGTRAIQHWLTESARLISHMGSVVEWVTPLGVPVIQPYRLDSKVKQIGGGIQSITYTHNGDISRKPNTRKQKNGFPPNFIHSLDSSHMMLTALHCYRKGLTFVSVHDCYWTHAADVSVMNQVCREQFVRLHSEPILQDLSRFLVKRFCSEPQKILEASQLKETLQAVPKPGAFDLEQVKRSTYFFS
Sequence of Human mitochondrial RNA polymerase (POLRMT) Δ42 (O00411 43-1230, stated change not applied): as the sequence (O00411 43-1230, one chain of several) above
Sequence of POLRMT Δ42;TFAM Δ42;TFB2M Δ59 (O00411 43-1230, stated change not applied, one chain of several): as the sequence (O00411 43-1230, one chain of several) above
Sequence of POLRMT Δ42;TFB2M Δ59 (O00411 43-1230, stated change not applied, one chain of several): as the sequence (O00411 43-1230, one chain of several) above
Sequence of POLRMT Δ42;TFAM Δ42;TFB2M Δ41, Alexa488 (O00411 43-1230, stated change not applied, one chain of several): as the sequence (O00411 43-1230, one chain of several) above

B1: Human transcription factor 2 (TFB2M) Y209A (natural protein, UniProt Q9H5Q4 21-396, looked up)
chain: GRFCILGSEAATRKHLPARNHCGLSDSSPQLWPEPDFRNPPRKASKASLDFKRYVTDRRLAETLAQIYLGKPSRPPHLLLECNPGPGILTQALLEAGAKVVALESDKTFIPHLESLGKNLDGKLRVIHCDFFKLDPRSGGVIKPPAMSSRGLFKNLGIEAVPWTADIPLKVVGMFPSRGEKRALWKLAADLYSCTSIYKFGRIEVNMFIGEKEFQKLMADPGNPDLYHVLSVIWQLACEIKVLHMEPWSSFDIYTRKGPLENPKRRELLDQLQQKLYLIQMIPRQNLFTKNLTPMNYNIFFHLLKHCFGRRSATVIDHLRSLTPLDARDILMQIGKQEDEKVVNMHPQDFKTLFETIERSKDCAYKWLYDETLEDR
B1: the binding result in data set [1] is on record as “binds”.

B2: Human transcription factor 2 (TFB2M) (GS)3-loop (natural protein, UniProt Q9H5Q4 21-396, looked up)
chain: GRFCILGSEAATRKHLPARNHCGLSDSSPQLWPEPDFRNPPRKASKASLDFKRYVTDRRLAETLAQIYLGKPSRPPHLLLECNPGPGILTQALLEAGAKVVALESDKTFIPHLESLGKNLDGKLRVIHCDFFKLDPGSGSGSGPPAMSSRGLFKNLGIEAVPWTADIPLKVVGMFPSRGEKRALWKLAYDLYSCTSIYKFGRIEVNMFIGEKEFQKLMADPGNPDLYHVLSVIWQLACEIKVLHMEPWSSFDIYTRKGPLENPKRRELLDQLQQKLYLIQMIPRQNLFTKNLTPMNYNIFFHLLKHCFGRRSATVIDHLRSLTPLDARDILMQIGKQEDEKVVNMHPQDFKTLFETIERSKDCAYKWLYDETLEDR
Consider B2, for which the binding result in data set [1] is on record as “binds”.

B3: LSP -42 to +9 duplex (dsDNA)
DNA 1: TGTGTTAGTTGGGGGGTGACTGTTAAAAGTGCATACCGCCAAAAGATAAAA
DNA 2: TTTTATCTTTTGGCGGTATGCACTTTTAACAGTCACCCCCCAACTAACACA
The Kd is the concentration at which binding is half-saturated. High values mean a looser complex, low ones a tighter complex. The molecule B3 yielded a dissociation constant (Kd) in data set [2] of 6.1 nM.

B4: Human mitochondrial transcription factor A (TFAM) Δ42 (natural protein, UniProt Q00059 43-245, looked up)
chain: SSVLASCPKKPVSSYLRFSKEQLPIFKAQNPDAKTTELIRRIAQRWRELPDSKKKIYQDAYRAEWQVYKEEISRFKEQLTPSQIMSLEKEIMDKHLKRKAMTKKKELTLLGKPKRPRSAYNVYVAERFQEAKGDSPQEKLKTVKENWKNLSDSEKELYIQHAKEDETRYHNEMKSWEEQMIEVGRKDLLRRTIKKQRKYGAEE
On to B4, for which, in data set [3], the binding result was “binds”.

B5: Alexa488-Δ41 TFB2M (natural protein, human, UniProt Q9H5Q4 42-396, looked up)
chain: CGLSDSSPQLWPEPDFRNPPRKASKASLDFKRYVTDRRLAETLAQIYLGKPSRPPHLLLECNPGPGILTQALLEAGAKVVALESDKTFIPHLESLGKNLDGKLRVIHCDFFKLDPRSGGVIKPPAMSSRGLFKNLGIEAVPWTADIPLKVVGMFPSRGEKRALWKLAYDLYSCTSIYKFGRIEVNMFIGEKEFQKLMADPGNPDLYHVLSVIWQLACEIKVLHMEPWSSFDIYTRKGPLENPKRRELLDQLQQKLYLIQMIPRQNLFTKNLTPMNYNIFFHLLKHCFGRRSATVIDHLRSLTPLDARDILMQIGKQEDEKVVNMHPQDFKTLFETIERSKDCAYKWLYDETLEDR
modifications: Alexa Fluor 488 C5 maleimide label (labelling efficiency ~76%)
B5: the Kd in data set [4] turned out to be 6.1 nM. This lies in the single-digit nanomolar range.

B6: LSP -43 to +13, -4 to +1 bubble (56 bp) (dsDNA)
DNA 1: ATGTGTTAGTTGGGGGGTGACTGTTAAAAGTGCATACCGAACAAAGATAAAATTTG
DNA 2: CAAATTTTATCTCCAGGCGGTATGCACTTTTAACAGTCACCCCCCAACTAACACAT
With B6, in data set [5], the binding result is on record as “binds”.

B7: LSP bubble with pppGpGpA RNA (slipped IC3) (mixed)
DNA 1: ATGTGTTAGTTGGGGGGTGACTGTTAAAAGTGCATACCGAACAAAGATAAAATTTG
DNA 2: CAAATTTTATCTCCAGGCGGTATGCACTTTTAACAGTCACCCCCCAACTAACACAT
?: GGA
modifications: RNA 5' triphosphate
For B7, the binding result with POLRMT Δ42;TFB2M Δ59 is listed as “binds”.

B8: Human transcription factor 2 (TFB2M) Δ59 (natural protein, UniProt Q9H5Q4 60-396, looked up)
chain: PPRKASKASLDFKRYVTDRRLAETLAQIYLGKPSRPPHLLLECNPGPGILTQALLEAGAKVVALESDKTFIPHLESLGKNLDGKLRVIHCDFFKLDPRSGGVIKPPAMSSRGLFKNLGIEAVPWTADIPLKVVGMFPSRGEKRALWKLAYDLYSCTSIYKFGRIEVNMFIGEKEFQKLMADPGNPDLYHVLSVIWQLACEIKVLHMEPWSSFDIYTRKGPLENPKRRELLDQLQQKLYLIQMIPRQNLFTKNLTPMNYNIFFHLLKHCFGRRSATVIDHLRSLTPLDARDILMQIGKQEDEKVVNMHPQDFKTLFETIERSKDCAYKWLYDETLEDR
With B8, in data set [3], the binding result is given as “binds”.

B9: Human transcription factor 2 (TFB2M) SGG-AAA (natural protein, UniProt Q9H5Q4 60-396, looked up)
chain: PPRKASKASLDFKRYVTDRRLAETLAQIYLGKPSRPPHLLLECNPGPGILTQALLEAGAKVVALESDKTFIPHLESLGKNLDGKLRVIHCDFFKLDPRAAAVIKPPAMSSRGLFKNLGIEAVPWTADIPLKVVGMFPSRGEKRALWKLAYDLYSCTSIYKFGRIEVNMFIGEKEFQKLMADPGNPDLYHVLSVIWQLACEIKVLHMEPWSSFDIYTRKGPLENPKRRELLDQLQQKLYLIQMIPRQNLFTKNLTPMNYNIFFHLLKHCFGRRSATVIDHLRSLTPLDARDILMQIGKQEDEKVVNMHPQDFKTLFETIERSKDCAYKWLYDETLEDR
Turning to B9, in data set [1], the binding result is “binds”.
